The values below come from FireProtDB (doi:10.1016/j.jmb.2009.05.011).

Where “and” joins values, the source holds several entries; their conditions need not be identical. Equal entries are not always repeated.

Sequences and labels used below:
B1: Dihydrolipoyllysine-residue succinyltransferase component of 2-oxoglutarate dehydrogenase complex, P0AFG6 (parent)
chain: MSSVDILVPDLPESVADATVATWHKKPGDAVVRDEVLVEIETDKVVLEVPASADGILDAVLEDEGTTVTSRQILGRLREGNSAGKETSAKSEEKASTPAQRQQASLEEQNNDALSPAIRRLLAEHNLDASAIKGTGVGGRLTREDVEKHLAKAPAKESAPAAAAPAAQPALAARSEKRVPMTRLRKRVAERLLEAKNSTAMLTTFNEVNMKPIMDLRKQYGEAFEKRHGIRLGFMSFYVKAVVEALKRYPEVNASIDGDDVVYHNYFDVSMAVSTPRGLVTPVLRDVDTLGMADIEKKIKELAVKGRDGKLTVEDLTGGNFTITNGGVFGSLMSTPIINPPQSAILGMHAIKDRPMAVNGQVEILPMMYLALSYDHRLIDGRESVGFLVTIKELLEDPTRLLLDV

In this series the parent is B1. The note with it: Escherichia coli (strain K12), pH 7, structure 1W4H, whole UniProt chain shown.
Setting [1] is: 10 °C, GdnHCl, Fluorescence, 3-[morpholino]propanesulfonic acid 50 mM, NaCl 200 mM.
Setting [2] is: Thermal, CD, Potassium phosphate 50 mM, KCl 200 mM.
Setting [3] is: 10 °C, GdnHCl, CD, 3-[morpholino]propanesulfonic acid 50 mM, NaCl 200 mM.

For the variant L141A, under setting [1], the denaturant m value turned out to be 0.48 kcal/mol/M and the unfolding free energy turned out to be 0.46 kcal/mol. Also, under setting [2], the Tm (commonly the temperature at the midpoint of the melting transition) is 26.4 °C, the “ddG of mutation (higher = less stable)” value was 2.12 kcal/mol and the “unfolding enthalpy (van 't Hoff)” value worked out at 10 kcal/mol.
Turning to T135A, under setting [3], the “ddG of mutation (higher = less stable)” value came to 1.68 kcal/mol, the denaturant m value stood at 0.69 kcal/mol/M, the “denaturant midpoint (higher = more stable)” value (“denaturant midpoint” below) is 1.51 M and the unfolding free energy came to 1.04 kcal/mol. Further, under setting [1], the unfolding free energy was determined as 0.78 kcal/mol. Moreover, under setting [2], the Tm was 36.4 °C, the “ddG of mutation (higher = less stable)” value amounted to 1.36 kcal/mol and the “unfolding enthalpy (van 't Hoff)” value was 9 kcal/mol.
T135S: under setting [2], the Tm amounted to 50.4 °C, the “ddG of mutation (higher = less stable)” value turned out to be 0.29 kcal/mol and the “unfolding enthalpy (van 't Hoff)” value amounted to 21 kcal/mol.
The corresponding values for A151G are 53.2 °C, 0.07 kcal/mol and 21 kcal/mol.
For S115G, under setting [3], the “ddG of mutation (higher = less stable)” value was determined as 0.57 kcal/mol, the denaturant m value stood at 0.7 kcal/mol/M, the “denaturant midpoint” value stood at 3.05 M and the unfolding free energy came out at 2.14 kcal/mol. Also, under setting [1], the denaturant m value came out at 0.21 kcal/mol/M and the unfolding free energy came to 2.31 kcal/mol. Besides, under setting [2], the Tm was 53.6 °C, the “ddG of mutation (higher = less stable)” value came to 0.47 kcal/mol and the “unfolding enthalpy (van 't Hoff)” value was determined as 21 kcal/mol.
For A117G, under setting [2], the melting temperature (Tm) is 49.4 °C, the “ddG of mutation (higher = less stable)” value stood at 0.37 kcal/mol and the “unfolding enthalpy (van 't Hoff)” value amounted to 23 kcal/mol.
For L114W, under setting [3], the denaturant m value came to 0.67 kcal/mol/M, the “denaturant midpoint” value stood at 3.15 M and the unfolding free energy stood at 2.11 kcal/mol. For the same variant, the unfolding free energy under setting [1] turned out to be 2.22 kcal/mol.
As to T142S, under setting [1], the denaturant m value is 0.53 kcal/mol/M and 0.2 kcal/mol/M; the unfolding free energy came to 1.45 kcal/mol.
Take V146A: under setting [1], the denaturant m value was 0.48 kcal/mol/M and 0.16 kcal/mol/M; the unfolding free energy was found to be 0.47 kcal/mol. In addition, under setting [2], the melting temperature (Tm) is 27.9 °C, the “ddG of mutation (higher = less stable)” value was found to be 2.02 kcal/mol and the “unfolding enthalpy (van 't Hoff)” value turned out to be 9 kcal/mol.
For H149G, under setting [3], the “ddG of mutation (higher = less stable)” value was 1.87 kcal/mol, the denaturant m value was determined as 0.64 kcal/mol/M, the “denaturant midpoint” value was 1.25 M and the unfolding free energy amounted to 0.8 kcal/mol. Under setting [1], the denaturant m value was 0.45 kcal/mol/M and 0.21 kcal/mol/M; the unfolding free energy was found to be 0.93 kcal/mol. In addition, under setting [2], the Tm came out at 33.9 °C, the “ddG of mutation (higher = less stable)” value is 1.58 kcal/mol and the “unfolding enthalpy (van 't Hoff)” value is 8 kcal/mol.
As for H149A, under setting [2], the Tm was found to be 55 °C, the “ddG of mutation (higher = less stable)” value was -0.06 kcal/mol and the “unfolding enthalpy (van 't Hoff)” value is 22 kcal/mol.
For L121A, under setting [3], the “ddG of mutation (higher = less stable)” value came out at 1.6 kcal/mol, the denaturant m value amounted to 0.64 kcal/mol/M, the “denaturant midpoint” value was 1.63 M and the unfolding free energy worked out at 1.04 kcal/mol. Under setting [1], the denaturant m value was 0.46 kcal/mol/M and 0.16 kcal/mol/M; the unfolding free energy is 0.9 kcal/mol. Further, under setting [2], the Tm was found to be 32.2 °C, the “ddG of mutation (higher = less stable)” value was 1.67 kcal/mol and the “unfolding enthalpy (van 't Hoff)” value was 16 kcal/mol.
Turning to I118V, under setting [2], the Tm is 53.8 °C, the “ddG of mutation (higher = less stable)” value is 0.03 kcal/mol and the “unfolding enthalpy (van 't Hoff)” value was 26 kcal/mol.
In the case of I118A, under setting [3], the “ddG of mutation (higher = less stable)” value was 1.24 kcal/mol, the denaturant m value is 0.65 kcal/mol/M, the “denaturant midpoint” value worked out at 2.09 M and the unfolding free energy was 1.36 kcal/mol. Besides, under setting [1], the denaturant m value is 0.46 kcal/mol/M and 0.2 kcal/mol/M; the unfolding free energy was found to be 1.18 kcal/mol.
Consider P116A, for which, under setting [2], the Tm was found to be 59.1 °C, the “ddG of mutation (higher = less stable)” value is -0.38 kcal/mol and the “unfolding enthalpy (van 't Hoff)” value was found to be 24 kcal/mol.
For D145N, under setting [1], the denaturant m value was found to be 0.17 kcal/mol/M. Besides, under setting [2], the Tm was 13.8 °C, the “ddG of mutation (higher = less stable)” value came out at 3.1 kcal/mol and the “unfolding enthalpy (van 't Hoff)” value stood at 5 kcal/mol.
As to A113G, under setting [2], the Tm amounted to 53.6 °C, the “ddG of mutation (higher = less stable)” value is 0.04 kcal/mol and the “unfolding enthalpy (van 't Hoff)” value stood at 23 kcal/mol.
Turning to I132V, under setting [3], the “ddG of mutation (higher = less stable)” value stood at 0.7 kcal/mol, the denaturant m value amounted to 0.73 kcal/mol/M, the “denaturant midpoint” value came to 2.88 M and the unfolding free energy was 2.1 kcal/mol. Besides, the denaturant m value under setting [1] was found to be 0.47 kcal/mol/M. Under setting [2], the Tm stood at 44.4 °C, the “ddG of mutation (higher = less stable)” value worked out at 0.75 kcal/mol and the “unfolding enthalpy (van 't Hoff)” value was 22 kcal/mol.
Consider A131G, for which, under setting [3], the “ddG of mutation (higher = less stable)” value came out at 0.52 kcal/mol, the denaturant m value turned out to be 0.71 kcal/mol/M, the “denaturant midpoint” value was 3.12 M and the unfolding free energy came to 2.22 kcal/mol. Besides, under setting [1], the denaturant m value was 0.43 kcal/mol/M and 0.28 kcal/mol/M; the unfolding free energy was 2.44 kcal/mol. Moreover, under setting [2], the Tm was 48.5 °C, the “ddG of mutation (higher = less stable)” value was determined as 0.43 kcal/mol and the “unfolding enthalpy (van 't Hoff)” value was determined as 21 kcal/mol.
H125W: under setting [3], the denaturant m value was 0.7 kcal/mol/M, the “denaturant midpoint” value is 3.96 M and the unfolding free energy worked out at 2.77 kcal/mol. In addition, the unfolding free energy under setting [1] was 2.55 kcal/mol. Under setting [2], the Tm amounted to 54.1 °C and the “unfolding enthalpy (van 't Hoff)” value came to 25 kcal/mol.
Consider V137G, for which, under setting [3], the “ddG of mutation (higher = less stable)” value was 0.98 kcal/mol, the denaturant m value came out at 0.73 kcal/mol/M, the “denaturant midpoint” value was determined as 2.49 M and the unfolding free energy came to 1.82 kcal/mol. Moreover, under setting [1], the denaturant m value is 0.47 kcal/mol/M and 0.24 kcal/mol/M; the unfolding free energy worked out at 2.03 kcal/mol. Under setting [2], the Tm worked out at 43.1 °C, the “ddG of mutation (higher = less stable)” value is 0.84 kcal/mol and the “unfolding enthalpy (van 't Hoff)” value is 18 kcal/mol.
